From paper PMC2819930
Where “and” joins values, the source holds several entries; their conditions need not be identical. Equal values may be shown once.

How the values were obtained:
Test in all cases: pull-down
[1] = molecular target: GST-NR1-1a (GST fused to the cytoplasmic tail of NR1-1a) (UniProt P35439)
[2] = molecular target: PKC-phosphorylated GST-NR1-1a
[3] = molecular target: PKA phosphorylated GST-NR1-1a

importin α (endogenous, rat brain) (from UniProt P83953 1-538) (natural protein)
importin α pulled down (immunoblot signal, a.u.) [1]: 0.94 a.u. and 1.43 a.u.
importin α pulled down (immunoblot signal, a.u.) [2]: 0.378 a.u.
importin α pulled down (immunoblot signal, a.u.) [3]: 1.33 a.u.
